B1: H-RRPPWLRLDI-NH2 (peptide 5) (peptide)
peptide: H-RRPPWLRLDI-NH2
notes: source: synthetic peptide (Fmoc/tBu solid phase on Rink-amide MBHA resin, RP-HPLC purified)
B2: H-RRRPPWLRLDIRR-NH2 (peptide 8) (peptide)
peptide: H-RRRPPWLRLDIRR-NH2
notes: peptide 6 with one more Arg at the N-terminus; source: synthetic peptide (Fmoc/tBu solid phase on Rink-amide MBHA resin, RP-HPLC purified)
B3: H-SLQRKKPPWLKLDIPSC-NH2 (peptide 1, RHDF1 linear binding motif) (peptide)
peptide: H-SLQRKKPPWLKLDIPSC-NH2
notes: C-terminal cysteine that follows the 16 residues of the motif in the printed peptide; not part of the motif as printed in the text; The added Cys probably serves for conjugation (cysteine containing peptides were joined to chloroacetylated peptides); also called original peptide; source: synthetic peptide (Fmoc/tBu solid phase on Rink-amide MBHA resin, RP-HPLC purified)
B4: Dabcyl-RRRPPWLRLDIRRK-NH2 (peptide 10) (peptide)
peptide: {Dabcyl′}-RRRPPWLRLDIRRK-NH2
SMILES: CC[C@H](C)[C@H](NC(=O)[C@H](CC(=O)O)NC(=O)[C@H](CC(C)C)NC(=O)[C@H](CCCNC(=N)N)NC(=O)[C@H](CC(C)C)NC(=O)[C@H](Cc1c[nH]c2ccccc12)NC(=O)[C@@H]1CCCN1C(=O)[C@@H]1CCCN1C(=O)[C@H](CCCNC(=N)N)NC(=O)[C@H](CCCNC(=N)N)NC(=O)[C@H](CCCNC(=N)N)NC(=O)c1ccc(/N=N/c2ccc(N(C)C)cc2)cc1)C(=O)N[C@@H](CCCNC(=N)N)C(=O)N[C@@H](CCCNC(=N)N)C(=O)N[C@@H](CCCCN)C(N)=O
notes: peptide 8 with a Lys at the C-terminus and a Dabcyl group on the N-terminus; also called Dabcyl-containing peptide (unlabelled); source: synthetic peptide (Fmoc/tBu solid phase on Rink-amide MBHA resin, RP-HPLC purified)
B5: H-RRPPWLRLDIRR-NH2 (peptide 6) (peptide)
peptide: H-RRPPWLRLDIRR-NH2
notes: peptide 5 extended at the C-terminus by two Arg; source: synthetic peptide (Fmoc/tBu solid phase on Rink-amide MBHA resin, RP-HPLC purified)
B6: H-KKPPWLKLDI-NH2 (peptide 4) (peptide)
peptide: H-KKPPWLKLDI-NH2
notes: RHDF1 docking motif without the flanking regions SLQR (N-terminus) and PS (C-terminus); also called short peptide; truncated construct; source: synthetic peptide (Fmoc/tBu solid phase on Rink-amide MBHA resin, RP-HPLC purified)

We go through 6 molecules from paper PMC8281026, “Peptide Based Inhibitors of Protein Binding to the Mitogen-Activated Protein Kinase Docking Groove” (Frontiers in Molecular Biosciences, 2021).

Primed or numbered codes have the meaning given here. The star is where a group is joined. Dabcyl′ = 4-((4-(dimethylamino)phenyl)azo)benzoyl, CN(C)c1ccc(/N=N/c2ccc(C(=O)*)cc2)cc1

The target in the first test is T1, p38α (UniProt Q16539 1-360).
T1 construct: The in vitro activity assay used active, phosphorylated pp-p38α (1 nM); source: recombinantly expressed in Escherichia coli, purified according to Garai et al
T1 sequence (Q16539 whole entry): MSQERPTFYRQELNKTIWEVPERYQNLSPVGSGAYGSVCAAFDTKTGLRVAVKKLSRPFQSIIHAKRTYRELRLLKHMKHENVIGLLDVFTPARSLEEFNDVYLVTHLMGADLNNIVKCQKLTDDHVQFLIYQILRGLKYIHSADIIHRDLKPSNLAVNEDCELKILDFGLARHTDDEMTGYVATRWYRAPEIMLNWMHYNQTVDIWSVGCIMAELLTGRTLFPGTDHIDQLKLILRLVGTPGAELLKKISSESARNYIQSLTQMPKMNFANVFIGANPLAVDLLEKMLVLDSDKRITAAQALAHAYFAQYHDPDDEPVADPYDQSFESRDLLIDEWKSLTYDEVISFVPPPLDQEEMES
Nature of the test: fluorescence polarisation; competitive: complex of the MAPK with 50 nM Cf-RHDF at 60-80% complex formation titrated with increasing unlabeled peptide; 20 mM Tris pH 8.0, 100 mM NaCl, 0.05% Brij35, 2 mM TCEP; 384-well black plates; triplicates; constants are called Kd in Table 1 and Ki in the methods. Particulars: both partners purified. A general note: In fluorescence polarisation assays a small probe gives low polarisation when free and higher when bound to something large.
As to B1, the dissociation constant Kd (commonly a measure of binding affinity in units of concentration) came to 10 µM.

In turn, B2 came in with a Kd of 1.4 µM.

On to B3, for which the dissociation constant (Kd) came to 1.1 µM.

As for B4, the affinity, expressed as Kd, was 1 µM. The Kd values of the last two molecules are within 1.5-fold of each other.

Another test deals with T2, ERK2 (UniProt P28482 1-360).
T2 construct: The in vitro activity assay used active, phosphorylated pp-ERK2 (1 nM); also called extracellular signal-regulated kinase 2; MAPK; source: recombinantly expressed in Escherichia coli, purified according to Garai et al
T2 sequence (P28482 whole entry): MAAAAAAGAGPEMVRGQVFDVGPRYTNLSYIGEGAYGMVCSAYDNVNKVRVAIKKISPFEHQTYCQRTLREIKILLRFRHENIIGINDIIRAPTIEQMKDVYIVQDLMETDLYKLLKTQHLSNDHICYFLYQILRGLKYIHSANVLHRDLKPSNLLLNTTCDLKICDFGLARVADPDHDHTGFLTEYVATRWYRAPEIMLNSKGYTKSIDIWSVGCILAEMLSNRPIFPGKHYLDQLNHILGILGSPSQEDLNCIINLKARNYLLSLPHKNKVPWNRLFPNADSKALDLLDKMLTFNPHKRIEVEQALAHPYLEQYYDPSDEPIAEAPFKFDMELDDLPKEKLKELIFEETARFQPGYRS
Described as above. The note with it: both partners purified.
B1 showed a Kd of 19.5 µM.

As for B2, the dissociation constant (Kd) was determined as 1.3 µM.

Turning to B5, the Kd turned out to be 5.2 µM. Compared with the last molecule, the Kd is about 4-fold higher.

With B3, binding was characterised by a dissociation constant (Kd) of 1.8 µM.

In turn, B4 showed a Kd of 4.6 µM. This Kd is about 2.6-fold higher than that of the molecule before.

In turn, B6 displayed a Kd of 15 µM.
